For orientation: Kd means the free concentration of one partner at which half of the binding sites on the other are occupied at equilibrium, for simple one-to-one binding.

The target in assay [1] is T1, heterodimer of murine IL-7Rα and murine TSLPR polypeptide (murine, UniProt P16872 21-459).
T1 construct: whole, on cells; Both chains co-expressed on transiently transfected 293 cells; also called IL-7Rα/TSLPR polypeptide heterodimer; cells expressing TSLPR polypeptide and IL-7Rα
T1 sequence (P16872 whole entry, looked up): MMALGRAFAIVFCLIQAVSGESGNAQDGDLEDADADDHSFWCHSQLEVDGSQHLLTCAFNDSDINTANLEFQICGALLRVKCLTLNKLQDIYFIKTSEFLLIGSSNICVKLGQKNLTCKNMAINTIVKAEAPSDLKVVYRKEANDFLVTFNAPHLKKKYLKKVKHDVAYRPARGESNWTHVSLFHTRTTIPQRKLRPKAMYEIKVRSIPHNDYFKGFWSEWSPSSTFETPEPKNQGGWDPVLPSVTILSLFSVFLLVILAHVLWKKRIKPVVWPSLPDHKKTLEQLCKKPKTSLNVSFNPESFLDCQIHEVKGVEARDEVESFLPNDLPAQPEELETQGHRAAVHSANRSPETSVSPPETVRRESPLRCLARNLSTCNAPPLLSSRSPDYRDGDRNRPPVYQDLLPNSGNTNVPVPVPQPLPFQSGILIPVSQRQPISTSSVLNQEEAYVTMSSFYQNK
T1 sequence (Q8CII9 whole entry, looked up): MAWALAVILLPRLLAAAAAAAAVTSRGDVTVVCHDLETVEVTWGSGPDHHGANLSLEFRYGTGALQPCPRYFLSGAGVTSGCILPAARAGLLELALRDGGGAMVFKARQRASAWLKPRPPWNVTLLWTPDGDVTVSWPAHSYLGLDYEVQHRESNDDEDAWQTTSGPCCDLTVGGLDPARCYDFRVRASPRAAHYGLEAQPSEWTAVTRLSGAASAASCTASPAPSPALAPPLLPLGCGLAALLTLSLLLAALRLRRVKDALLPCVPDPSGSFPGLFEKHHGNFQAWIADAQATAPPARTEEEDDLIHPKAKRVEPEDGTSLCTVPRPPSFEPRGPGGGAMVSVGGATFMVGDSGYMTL
Briefly: displacement binding assay on transfected 293 cells, Scatchard transformation (LIGAND program). How it is done: (§1) The binding of TSLP to 293 cells transfected with murine IL-7Rα and murine TSLPR polypeptide, or murine IL-7Rα alone, was analyzed in a displacement binding assay. Following two washes, 1×10⁶ transfected 293 cells were incubated in a constant amount of ¹²⁵I-labeled TSLP (approximately 20,000 cpm) and varying amounts of unlabeled TSLP. Following a 3 hour incubation, treated cells were separated from the medium by centrifugation in olive oil and N-butylphthalate. Cell-bound radioactivity was measured using a gamma counter.
(§2) Analysis of binding data by Scatchard transformation was performed using the LIGAND computer program (Munson and Rodbard, 1980, Anal. Biochem. 107:220-39). […] Due to the very low binding activity of TSLP for cells expressing […], it was not possible to determine the Kd for these cells. Displacement binding assays were also performed using NAG8/7 cells, which constitutively express TSLP receptors and proliferate in response to TSLP (Friend et al., supra; Levin et al., supra). In these displacement binding assays, 5×10⁶ NAG8/7 cells were incubated in a constant amount of ¹²⁵I-labeled TSLP (approximately 180,000 cpm) and varying amounts of unlabeled TSLP. The remainder of the assay was performed as described herein.

The target of assay [2] is T2, TSLP receptors constitutively expressed on NAG8/7 cells.
T2 construct: also called single class of receptors
Briefly: displacement binding assay with ^125I-TSLP and unlabeled TSLP on NAG8/7 cells, Scatchard transformation. How it is done:
as §1, §2

In a further assay the target is T3, murine IL-7Rα (murine, UniProt P16872 21-459).
T3 construct: whole, on cells; Expressed alone on transiently transfected 293 cells; also called murine IL-7Rα alone
T3 sequence (looked up): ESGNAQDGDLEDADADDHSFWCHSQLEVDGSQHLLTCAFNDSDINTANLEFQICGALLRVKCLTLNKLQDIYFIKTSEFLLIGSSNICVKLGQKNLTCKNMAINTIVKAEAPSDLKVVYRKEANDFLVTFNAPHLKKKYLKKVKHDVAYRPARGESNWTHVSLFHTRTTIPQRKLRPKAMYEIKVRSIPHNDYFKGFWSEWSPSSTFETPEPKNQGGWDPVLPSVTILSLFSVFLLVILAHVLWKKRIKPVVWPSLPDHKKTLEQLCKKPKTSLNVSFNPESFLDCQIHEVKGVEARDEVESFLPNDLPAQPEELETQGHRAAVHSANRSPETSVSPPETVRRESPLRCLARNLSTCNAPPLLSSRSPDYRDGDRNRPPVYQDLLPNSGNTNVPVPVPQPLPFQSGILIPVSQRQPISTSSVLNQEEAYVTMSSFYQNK
Briefly: affinity labeling, DSS cross-linking, transfected 293 cells, SDS-PAGE. The method, then:
The binding of TSLP to TSLPR polypeptide in the presence of IL-7Rα was examined in affinity labeling assays. Affinity labeling assays were performed by adding 1-5 nM of ¹²⁵I-labeled TSLP to 5×10⁶ 293 cells transfected with expression constructs for murine IL-7Rα, murine TSLPR polypeptide, murine IL-7Rα and murine TSLPR polypeptide, or human IL-7Rα and murine TSLPR polypeptide. Iodinated TSLP was prepared by adding IODO-GEN (Pierce, Rockford, Ill.) and 2 mCi¹²⁵I to 1 μg of TSLP. A specific activity of approximately 200-300 μCi/μg was obtained by this method. Prior to affinity labeling, 293 cells were transiently transfected using the calcium phosphate method (Eppendorf-5 Prime, Boulder, Colo.). Following a 2 hour incubation with ¹²⁵I-TSLP, cells were cross-linked with 0.1 mg/ml disuccinimidyl suberate (Pierce), lysed in lysis buffer, and the lysates resolved by SDS-PAGE.

B1: Thymic stromal lymphopoietin (TSLP) (ligand, UniProt Q9JIE6 20-140, looked up)
chain: YNFSNCNFTSITKIYCNIIFHDLTGDLKGAKFEQIEDCESKPACLLKIEYYTLNPIPGCPSLPDKTFARRTREALNDHCPGYPETERNDGTQEMAQEVQNICLNQTSQILRLWYSFMQSPE
For the molecule B1, the Kd in assay [1] is approximately 13 nM; in assay [2], approximately 2.2 nM. Besides, in the assay with murine IL-7Rα, the binding result is “no binding (tested: 1-5 nM of ^125I-labeled TSLP)”.

Values taken from patent US20020068323A1 (Amgen, published 2002).
